Publication PMC11564870

T1: Monbr Sox-like HMG (Monosiga brevicollis, UniProt A9VCR9 107-175)
T1 sequence: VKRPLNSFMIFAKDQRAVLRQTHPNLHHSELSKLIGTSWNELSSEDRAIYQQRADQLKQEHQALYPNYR


Experiments:
mOct4 POU;mSox2 HMG = mOct4 POU;mSox2 HMG (mouse;mouse, UniProt P20263;P48432 131-282;41-119, |); assay: EMSA
Monbr Sox-like HMG = target: T1, Monbr Sox-like HMG; assay: EMSA

Sequence of mOct4 POU;mSox2 HMG (P20263 131-282, chain 1 of 2): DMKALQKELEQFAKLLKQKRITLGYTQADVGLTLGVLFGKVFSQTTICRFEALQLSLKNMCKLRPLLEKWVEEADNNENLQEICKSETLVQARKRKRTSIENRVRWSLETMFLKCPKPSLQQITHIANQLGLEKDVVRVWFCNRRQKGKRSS
Sequence of mOct4 POU;mSox2 HMG (P48432 41-119, chain 2 of 2): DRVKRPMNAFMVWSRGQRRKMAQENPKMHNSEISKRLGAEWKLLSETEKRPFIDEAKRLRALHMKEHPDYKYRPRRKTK

Binder | binding result (mOct4 POU;mSox2 HMG) | binding result (Monbr Sox-like HMG)
SoxOct canonical (dsDNA) DNA 1: GCGGCATTGTCATGCAAATCGGCGG DNA 2: CCGCCGATTTGCATGACAATGCCGC | binds | 
Sox consensus (dsDNA) DNA 1: GGCGGCGGCATTGTCCGGCGCGCGG DNA 2: CCGCGCGCCGGACAATGCCGCCGCC |  | no binding
